Patent US20140315251A1 (ZOETIS SERVICES, published 2014)

Tests used:
pET101D-lacZ protein = target: T1, pET101D-lacZ protein (UniProt P00722 1-1024 = β-galactosidase, limits assumed); assay: Western blot of crude E. coli lysates
T1 construct: Control lane on the truncation blots; also called beta-galactosidase (lacZ)
Protocol: (§1) It was observed that the full length IL-31 protein was expressed very poorly. […] Antibodies 11E12 and 34D03 all bound to the −20N protein. Therefore, further work was carried out using this −20 N construct. Constructs representing C-terminal truncations at positions 20-122 (MW 15.3 with his tag), 20-100 (MW 12.9 with his tag), and 20-80 (MW 10.4 with his tag), were made to assess mAb binding to these areas on the IL-31 protein. The amino acid and nucleotide sequences corresponding to the 20-122 construct are SEQ ID NOs: 63 and 64, respectively. The amino acid and nucleotide sequences corresponding to the 20-100 construct are SEQ ID NOs: 65 and 66, respectively. The amino acid and nucleotide sequences corresponding to the 20-80 construct are SEQ ID NOs: 67 and 68, respectively. […] This region corresponds to amino acid Nos. between amino acid residues 102 and 122 of the canine IL-31 full-length protein sequence of SEQ ID NO: 32. […] In addition, the pET101D-lacZ protein was used as a control to confirm the lack of non-specific binding of mAbs to host proteins.

[1] = target: T2, feline IL-31 full-length construct for E. coli expression (feline); assay: Western blot of purified IL-31 proteins
T2 construct: Purified from E. coli under denaturing conditions and dialysed; also called feline IL-31 protein
T2 chain: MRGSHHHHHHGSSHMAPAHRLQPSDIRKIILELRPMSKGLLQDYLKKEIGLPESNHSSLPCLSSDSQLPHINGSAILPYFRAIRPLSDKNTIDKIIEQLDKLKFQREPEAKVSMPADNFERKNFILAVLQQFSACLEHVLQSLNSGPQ

[2] = target: T2, feline IL-31 full-length construct for …; assay: Western blot under reducing conditions, purified protein from mammalian and E. coli sources
[3] = target: T3, canine IL-31 with double alanine substitution (D82A, I85A) (canine); assay: Western blot of E. coli lysates
T3 construct: The -20N backbone is stated for the alanine scan and -20N was the control on this blot; also called double mutation
Text: (§2) To examine the impact of multiple mutations in the region of IL-31 important for binding to the 11E12 and 34D03 antibodies, expression plasmids were constructed with double (D82A, […]) and triple (I81A, D82A, I85A) alanine substitutions. E. coli lysates expressing canine IL-31 with these double and triple mutations in addition to the −20N control were blotted with 11E12 and 34D03 antibodies (FIG. 16). It is apparent that these three amino acids on canine IL-31 are involved with recognition of 11E12 and 34D03 as complete abrogation of binding is observed when these sites are changed to alanine. These three amino acids correspond to amino acid residues 103, 104 and 107 of the canine IL-31 full-length protein sequence of SEQ ID NO: 32.

[4] = target: T4, canine IL-31 with triple alanine substitution (I81A, D82A, I85A) (canine); assay: Western blot of E. coli lysates
T4 construct: Positions count on the full-length E. coli construct; also called triple mutation
Text: as §2

[5] = target: T5, canine IL-31 20-80 construct (canine); assay: Western blot of crude E. coli lysates
T5 construct: The range counts on the full-length E. coli construct; also called C-terminal truncation at positions 20-80
T5 chain: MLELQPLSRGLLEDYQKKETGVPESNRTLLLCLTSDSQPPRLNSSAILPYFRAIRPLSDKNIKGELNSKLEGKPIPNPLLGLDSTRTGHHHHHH
Protocol: as §1

[6] = target: T6, canine IL-31 -40N construct (canine); assay: Western blot of crude E. coli lysates
T6 construct: Crude E. coli lysate on Western blot; also called N-terminal truncation -40N
Protocol: as §1

[7] = target: T7, canine IL-31 -20N construct (canine); assay: Western blot of crude E. coli lysates
T7 construct: Crude E. coli lysate on Western blot; also called N-terminal truncation -20N; -20N protein
Protocol: as §1

[8] = target: T8, canine IL-31 -60N construct (canine); assay: Western blot of crude E. coli lysates
T8 construct: Crude E. coli lysate on Western blot; also called N-terminal truncation -60N
Protocol: as §1

[9] = target: T9, canine IL-31 20-122 construct (canine); assay: Western blot of crude E. coli lysates
T9 construct: also called C-terminal truncation at positions 20-122
T9 chain: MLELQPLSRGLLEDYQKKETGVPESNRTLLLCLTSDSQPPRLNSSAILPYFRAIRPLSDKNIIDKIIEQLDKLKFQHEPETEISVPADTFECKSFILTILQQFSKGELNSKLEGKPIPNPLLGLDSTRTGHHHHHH
Protocol: as §1

[10] = target: T10, canine IL-31 20-100 construct (canine); assay: Western blot of crude E. coli lysates
T10 construct: The range counts on the full-length E. coli construct; also called C-terminal truncation at positions 20-100
Protocol: as §1

[11] = target: T11, canine IL-31 full-length construct for E. coli expression (canine); assay: Western blot of purified IL-31 proteins
T11 construct: also called canine IL-31 (E. coli)
T11 chain: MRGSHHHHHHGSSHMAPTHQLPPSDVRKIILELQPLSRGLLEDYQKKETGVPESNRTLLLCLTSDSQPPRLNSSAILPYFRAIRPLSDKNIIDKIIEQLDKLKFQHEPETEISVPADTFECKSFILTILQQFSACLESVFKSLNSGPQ

T1 sequence (P00722 whole entry, the tested form may be a part): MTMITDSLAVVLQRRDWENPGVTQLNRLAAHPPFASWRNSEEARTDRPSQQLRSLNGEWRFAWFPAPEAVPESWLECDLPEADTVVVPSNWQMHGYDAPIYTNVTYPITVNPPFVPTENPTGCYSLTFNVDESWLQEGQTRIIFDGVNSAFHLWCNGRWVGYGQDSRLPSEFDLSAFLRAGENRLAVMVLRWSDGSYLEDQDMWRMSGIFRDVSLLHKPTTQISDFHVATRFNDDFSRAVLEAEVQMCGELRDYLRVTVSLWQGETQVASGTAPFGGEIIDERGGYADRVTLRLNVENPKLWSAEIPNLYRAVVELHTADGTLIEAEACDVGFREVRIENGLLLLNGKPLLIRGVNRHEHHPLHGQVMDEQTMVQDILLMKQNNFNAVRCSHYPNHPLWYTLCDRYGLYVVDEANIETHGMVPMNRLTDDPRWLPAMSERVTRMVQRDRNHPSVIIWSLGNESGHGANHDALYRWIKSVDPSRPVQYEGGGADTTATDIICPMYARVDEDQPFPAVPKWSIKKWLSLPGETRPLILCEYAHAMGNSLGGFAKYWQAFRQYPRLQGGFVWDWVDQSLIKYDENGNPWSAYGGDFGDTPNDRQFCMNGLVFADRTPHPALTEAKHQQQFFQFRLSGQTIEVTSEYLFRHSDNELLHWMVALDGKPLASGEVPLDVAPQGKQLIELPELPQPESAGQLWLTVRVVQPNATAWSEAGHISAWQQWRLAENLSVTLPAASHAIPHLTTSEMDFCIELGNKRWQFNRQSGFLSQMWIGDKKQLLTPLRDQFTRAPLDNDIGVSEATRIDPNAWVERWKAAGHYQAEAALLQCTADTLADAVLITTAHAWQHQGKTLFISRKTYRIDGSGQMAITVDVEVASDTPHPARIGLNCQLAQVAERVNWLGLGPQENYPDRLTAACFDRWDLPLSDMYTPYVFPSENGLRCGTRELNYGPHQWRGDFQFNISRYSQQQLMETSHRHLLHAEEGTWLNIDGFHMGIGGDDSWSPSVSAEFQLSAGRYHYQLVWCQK

B1: Mouse 11E12 (antibody, V domains shown)
VH: QVQLQQSGAELVKPGASVKLSCKASGYTFKYYDINWVRQRPEQGLEWIGWIFPGDGGTKYNETFKGKATLTTDKSSSTAYMQLSRLTSEDSAVYFCARGGTSVIRDAMDYWGQGTSVTVSS
VL: DIVLTQSPASLAVSLGQRATISCRASESVDNYGISFMHWYQQKPGQPPKLLIYRASNLESGIPARFSGSGSRTDFTLTINPVETDDVATYYCQQSNKDPLTFGAGTKLELK
notes: Mouse hybridoma monoclonal; also called mAb 11E12; MU-11E12
Does B1 bind (pET101D-lacZ protein)?
Result: no binding

Does B1 bind [1]?
Result: binds

B2: Felinized 34D03 (antibody, V domains shown)
VH: DVQLVESGGDLVKPGGSLRLTCVASGFTYSNYGMSWVRQAPGKGLQWVATISYGGSYTYYPDNIKGRFTISRDNAKNTLYLQMNSLKTEDTATYYCVRGYGYDTMDYWGQGTLVTVSS
VL: EIQMTQSPSSLSASPGDRVTITCKASQSVSFAGTGLMHWYQQKPGKVPKLLIYRASNLEAGVPSRFSGSGSGTDFTLTISSLEPEDAATYYCQQSREYPWTFGQGTKLEIKR
notes: Produced from HEK cells; also called feline 34D03; felinized antibody 34D03
Does B2 bind [2]?
Result: binds

B3: Mouse 34D03 (antibody, V domains shown)
VH: EVQLVESGGDLVKPGGSLKLSCAASGFSFSNYGMSWVRQTPDKRLEWVATISYGGSYTYYPDNIKGRFTISRDNAKNTLYLQMSSLKSEDTAMYYCVRGYGYDTMDYWGQGTSVTVSS
VL: DILLTQSPASLAVSLGQRAIISCKASQSVSFAGTGLMHWYQQKPGQQPKLLIYRASNLEAGVPTRFSGSGSRTDFTLNIHPVEEEDAATYFCQQSREYPWTFGGGTKLEIK
notes: Mouse hybridoma monoclonal; also called mAb 34D03; MU-34D03
Which results are given for B3?
binding result [3]: no binding; binding result [4]: no binding; binding result [5]: no binding; binding result [6]: binds; binding result [7]: binds; binding result [8]: binds; binding result (pET101D-lacZ protein): no binding; binding result [9]: binds; binding result [10]: binds; binding result [11]: binds; binding result [1]: binds
